Earlier results as cited in patent publication US20230365625A1, “METHODS FOR TREATING AND/OR PREVENTING UNDESIRABLE SEQULAE OF NASAL TURBINOPLASTY OR FUNCTIONAL ENDOSCOPIC SINUS SURGERY” (3-D Matrix, Ltd., priority 2022, published 2023).
“Also recorded” adds a separate entry of the source. Read-outs that look alike come from different tables or passages of the source.

How the values were obtained:
[1] = RADA16 2.5%, IEIK13 1.3%, QLEL12 0.15% in water; result in words; cited from earlier work
[2] = cited from earlier work
[3] = 1% in water; cited from earlier work
[4] = cited from earlier work; remark: listed apart in the source
[5] = tested on: punch hole injuries to the liver; conditions: pig, in vivo; cited from earlier work
[6] = in solution before DMEM, RADA16 assumed 2.5% wt/vol, IEIK13 concentration unknown

| Substance | Effect of gamma-irradiation sterilization [1] | Gel stiffness compared to RADA16 ([2]; exposed to physiological conditions, result in words) | Median loss modulus G″ [2, 6] [Pa] | Median storage modulus G′ [2, 6] [Pa] | Increase in storage modulus G′ after DMEM treatment relative to before [3] [fold] | Storage modulus after DMEM treatment [3] [Pa] | Storage modulus G′ ([4]; 1% in water) [Pa] | Inflammatory cell infiltration due to the gel in the wound [5] | Storage modulus G′ ([4]; 1.5% in water) | Storage modulus G′ ([4]; 2.5% in water) [Pa] |
| --- | --- | --- | --- | --- | --- | --- | --- | --- | --- | --- |
| Ac-QLELQLELQLEL-NH2 [QLEL12, self-assembling peptide] | significant degradation and viscosity drop |  |  |  |  |  |  |  |  |  |
| Ac-IEIKIEIKIEIKI-NH2 [IEIK13] | enhanced the rheological properties | forms a stiffer gel; also recorded: form a stiffer hydrogel matrix | 116 | 1145 | 7.4 | 5314 | ~700 | absence if inflammatory cell infiltration |  |  |
| KLDKLDKLDKLD [KLD12] |  |  |  |  | 23.9 |  |  |  | about 350 Pa | ~700 |
